In PMC9779223, “Impact of Troponin in Cardiomyopathy Development Caused by Mutations in Tropomyosin” (International Journal of Molecular Sciences, 2022):

Biological target: T1, Tropomyosin C-terminal fragment Tpm WT 134–284 (human, UniProt P09493 134-284)
T1 construct: also called Tpm C-end; source: E. coli C41 (DE3), purified (anion exchange, HiTrap Q HP)
Assay: ITC; MicroCal PEAQ-ITC, 25 °C; 30 mM HEPES-Na pH 7.3, 100 mM NaCl, 1 mM DTT; sample in the cell 30 to 60 µM, ligand in the syringe 200 to 700 µM; one set of binding sites
Settings: both partners purified

T1 sequence (P09493 134-284): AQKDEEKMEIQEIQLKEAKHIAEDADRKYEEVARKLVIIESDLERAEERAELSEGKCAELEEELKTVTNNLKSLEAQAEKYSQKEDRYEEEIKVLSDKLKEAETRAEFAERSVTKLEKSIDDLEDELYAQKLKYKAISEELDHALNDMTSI

B1: Tropomyosin N-terminal fragment Tpm WT 1–133 (domain or fragment)
chain: not shown
notes: human tropomyosin Tpm1.1 (alpha-Tpm), residues 1-133 (ends at the trypsin site Arg133); Made from the full Tpm1.1 construct by primers that put a stop after Arg133; also called Tpm_(1–133); Tpm N-end; source: E. coli C41 (DE3), purified (anion exchange, HiTrap Q HP)
Kd: 10.2 ± 0.3 µM
dH: 1.95 ± 0.15 kcal/mol
stoichiometry N: 1.17 ± 0.05
